Experimental data published in patent US20260139046A1 (ATTOVIA THERAPEUTICS, published 2026).

T1: human IL31 (human, UniProt Q6EBC2 24-164, biotinylated in the SPR assay (site not stated))
T1 sequence: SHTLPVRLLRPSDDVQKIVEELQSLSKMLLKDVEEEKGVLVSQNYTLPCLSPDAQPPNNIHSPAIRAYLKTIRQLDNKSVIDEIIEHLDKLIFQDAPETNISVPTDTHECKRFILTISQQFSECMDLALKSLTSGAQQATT

B1: 1D1 co-binder + huIgG1Fc_YTE_C→S (Fc fusion)
chain: EVQLVESGGGLVQAGGSLRLSCAASGGTFSSYAMAWFRQAPGKEREYVAGISSSGYTLYKSDSMKGRFTISRENAKNMVYLQMNSLKPEDTAVYSCAAGIFGRPYEYWGQGTLVTVSSGGGSGGGGSGGGGSGGGGSGGGGSPSMGVKLEESGGGLVQAGGSLILSCAASGDIPSIVAMGWYRQAPGKQRELVAAITSGGRTHYRDSVKGRFTISGNNDNSALYLHMNSLKPEDTAVYYCAADMGLTAVGEYDYWGQGTQVTVSSEPKSSDKTHTCPPCPAPELLGGPSVFLFPPKPKDTLYITREPEVTCVVVDVSHEDPEVKFNWYVDGVEVHNAKTKPREEQYNSTYRVVSVLTVLHQDWLNGKEYKCKVSNKALPAPIEKTISKAKGQPREPQVYTLPPSRDELTKNQVSLTCLVKGFYPSDIAVEWESNGQPENNYKTTPPVLDSDGSFFLYSKLTVDKSRWQQGNVFSCSVMHEALHNHYTQKSLSLSPGK
notes: VHH1-linker-VHH2-Fc; also called 1D1 WT; 1D1Fc
B2: 1H5 co-binder + huIgG1Fc_YTE_C→S (Fc fusion)
chain: EVQLVESGGGSVQAGGSLRLSCAASGGTFSSYAMAWFRQAPGKEREYVAGISSSGYTLYKSDSMKGRFTISRENAKNMVYLQMNSLKPEDTAVYSCAAGIFGRPYEYWGQGTQVTVSSGGGGSGGGGSGGGGSRSVGVQLVESGGGLVQAGGSLRLSCAASGSISSIHAMGWYRQAPGKQRELIAAITSGGRRHYRDSVKGRFTISGDNAKTNLYLQMNSLKPEDTAVYYCAADTGRVAVGEYDYWGQGTLVTVSSEPKSSDKTHTCPPCPAPELLGGPSVFLFPPKPKDTLYITREPEVTCVVVDVSHEDPEVKFNWYVDGVEVHNAKTKPREEQYNSTYRVVSVLTVLHQDWLNGKEYKCKVSNKALPAPIEKTISKAKGQPREPQVYTLPPSRDELTKNQVSLTCLVKGFYPSDIAVEWESNGQPENNYKTTPPVLDSDGSFFLYSKLTVDKSRWQQGNVFSCSVMHEALHNHYTQKSLSLSPGK
notes: VHH1-linker-VHH2-Fc
B3: 1C10 co-binder + huIgG1Fc_YTE_C→S (Fc fusion)
chain: EVQLVESGGGLVQAGGSLRLSCAASGGTFSSYTMGWFRQAPGKEREYVGGISSSGYVMYNSESMKGRFTISRENAKNMVYLQMNSLKPEDTAVYYCAAGTIGRPYDYWGQGTQVTVSSGGGSGGGGSGGGGSGGGGSGGGGSGGGGSGGGGSGMTGVKLEESGGGLVQPGGSLILSCAASGDISSIVAMGWYRQAPGKQRELVAAITSGGRTHYRDSVKGRFTISGNNDNSALYLHMNSLKPEDTAVYYCAADRGWTSVGEYDYWGKGTLVTVSSEPKSSDKTHTCPPCPAPELLGGPSVFLFPPKPKDTLYITREPEVTCVVVDVSHEDPEVKFNWYVDGVEVHNAKTKPREEQYNSTYRVVSVLTVLHQDWLNGKEYKCKVSNKALPAPIEKTISKAKGQPREPQVYTLPPSRDELTKNQVSLTCLVKGFYPSDIAVEWESNGQPENNYKTTPPVLDSDGSFFLYSKLTVDKSRWQQGNVFSCSVMHEALHNHYTQKSLSLSPGK
notes: VHH1-linker-VHH2-Fc; also called 1C10 WT; 1C10Fc
B4: 21H7 co-binder + huIgG1Fc_YTE_C→S (Fc fusion)
chain: EVQLVESGGGLVQAGGSLRLSCAASGGTFSSYTMGWFRQAPGKEREYVGGISSSGYVMYNSESMKGRFTISRENAKNMVYLQMNSLKPEDTAVYYCAAGTIGRPYDYWGQGTQVTVSSGGGSGGGGSGGGGSGGGGSGGGGSGGGGSGGGGSEGVGLVESGGGSVQAGDSLRLSCAASGRTFSTYIIGWFRQAPGKEREFVASISWGGRGTYYADSVKDRFTISRDNPKNMVYLQMNSLKPEDTAVYYCAAGDLPGGRRALDYDYWGQGTLVTVSSEPKSSDKTHTCPPCPAPELLGGPSVFLFPPKPKDTLYITREPEVTCVVVDVSHEDPEVKFNWYVDGVEVHNAKTKPREEQYNSTYRVVSVLTVLHQDWLNGKEYKCKVSNKALPAPIEKTISKAKGQPREPQVYTLPPSRDELTKNQVSLTCLVKGFYPSDIAVEWESNGQPENNYKTTPPVLDSDGSFFLYSKLTVDKSRWQQGNVFSCSVMHEALHNHYTQKSLSLSPGK
notes: VHH1-linker-VHH2-Fc; also called 21H7 WT; 21H7Fc

target: T1, human IL31; test: cell-based or functional assay

Activity (IC50, nM); pSTAT3 assay per Table 4 | Binder
6.7 nM | B1
6.1 nM | B2
8.5 nM | B3
8.4 nM | B4

target: T1, human IL31; test: cell-based or functional assay; remark: another data set of the same source

EC50 (pSTAT3) nM | Binder
8.42 nM | B1
6.57 nM | B3
6.65 nM | B4

target: T1, human IL31; test: cell-based or functional assay; remark: another data set of the same source

Activity (IC50, nM), pSTAT3 assay (P^3) | Binder
6.7 nM | B1
6.1 nM | B2
8.5 nM | B3
8.4 nM | B4

target: T1, human IL31; test: binding kinetics, large-scale material, baseline sample; method and target not restated (SPR on IL31 presumed)

Kd | koff | kon | Binder
1.94 nM | 0.000405 s⁻¹ | 209000 M⁻¹ s⁻¹ | B1
0.136 nM | 0.000138 s⁻¹ | 1.01e+06 M⁻¹ s⁻¹ | B2
1.5 nM | 0.00033 s⁻¹ | 220000 M⁻¹ s⁻¹ | B3
18.6 nM | 0.00423 s⁻¹ | 228000 M⁻¹ s⁻¹ | B4

target: T1, human IL31; test: binding kinetics after 3x freeze/thaw; method and target not restated (SPR on IL31 presumed)

Kd | koff | kon | Binder
3.22 nM | 0.000628 s⁻¹ | 195000 M⁻¹ s⁻¹ | B1
0.619 nM | 0.000551 s⁻¹ | 890000 M⁻¹ s⁻¹ | B2
3.45 nM | 0.000675 s⁻¹ | 196000 M⁻¹ s⁻¹ | B3
19.4 nM | 0.00435 s⁻¹ | 224000 M⁻¹ s⁻¹ | B4

target: T1, human IL31; test: KD of wild-type and humanized co-binders; method not restated (SPR as in Example 4 presumed)

Kd | Binder
0.0153 nM | B1
0.0126 nM | B3
0.0104 nM | B4

target: T1, human IL31; test: SPR (Biacore T200, Biotin CAPture): biotinylated IL31 captured, co-binder Fc fusion as analyte
Description: (§1) Binding affinity was measured using Biotin CAPture Kit (Cytiva Life Sciences) and the BIACORE™ T200 SPR system (Cytiva Life Sciences). Initially, Biotin CAPture Reagent (Cytiva Life Sciences) was flowed to immobilize 3 nM biotinylated IL31 (ligand). 3 nM, 9 nM, and 27 nM anti-IL31 co-binders were flowed as analyte with 180 seconds association and running buffer was flowed with 3000 seconds dissociation. The sensor chip was regenerated by guanidine hydrochloride and sodium hydroxide.

Kd | Binder
0.024 nM | B1
0.0032 nM | B2
0.0587 nM | B3
0.0148 nM | B4

target: T1, human IL31; test: as above; remark: another data set of the same source
Description: as §1

Kd | Binder
0.024 nM | B1
0.0032 nM | B2
0.0587 nM | B3
0.0148 nM | B4
